Test results from publication PMC5507294 (PLoS ONE, 2017).

Legend:
[1] = target: T1, PR55α, the α isoform of the 55 kDa B-type regulatory subunit of PP2A (human (endogenous in HECs), UniProt P63151 1-447); experiment: co-IP; GSK-3β, PR55α or PP2Ac immunoprecipitated (antibody with protein A or protein G agarose, 90 min at 4°C) from RIPA lysates of HECs with equal amounts of protein; immunoblot for β-catenin; cells 3 d in KGM or in CR culture (F+Y+J2); details: partners not purified
T1 construct: PR55α, α isoform of the 55 kDa B-type regulatory subunit of protein phosphatase 2A, endogenous in primary human ectocervical cells (HECs); also called PP2A regulatory subunit; source: endogenous, lysate of primary human ectocervical cells (HECs) in RIPA buffer
T1 sequence (looked up): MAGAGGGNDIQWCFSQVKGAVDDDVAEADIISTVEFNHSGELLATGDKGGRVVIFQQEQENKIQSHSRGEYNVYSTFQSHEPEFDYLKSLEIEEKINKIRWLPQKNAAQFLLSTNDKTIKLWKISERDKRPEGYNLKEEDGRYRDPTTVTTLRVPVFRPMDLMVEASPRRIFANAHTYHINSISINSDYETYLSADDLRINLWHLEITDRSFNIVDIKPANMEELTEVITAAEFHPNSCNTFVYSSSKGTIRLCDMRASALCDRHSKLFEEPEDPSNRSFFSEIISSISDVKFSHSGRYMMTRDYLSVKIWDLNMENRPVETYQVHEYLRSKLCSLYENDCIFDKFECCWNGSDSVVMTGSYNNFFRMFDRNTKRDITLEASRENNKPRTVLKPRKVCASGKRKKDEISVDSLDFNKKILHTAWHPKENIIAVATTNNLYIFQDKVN

[2] = target: T2, PP2A catalytic subunit (PP2Ac) (human (endogenous in HECs), UniProt P67775 1-309); experiment: as above; details: partners not purified
T2 construct: catalytic (C) subunit of protein phosphatase 2A, endogenous in primary human ectocervical cells (HECs); also called PP2A C subunit; source: endogenous, lysate of primary human ectocervical cells (HECs) in RIPA buffer
T2 sequence (P67775 whole entry): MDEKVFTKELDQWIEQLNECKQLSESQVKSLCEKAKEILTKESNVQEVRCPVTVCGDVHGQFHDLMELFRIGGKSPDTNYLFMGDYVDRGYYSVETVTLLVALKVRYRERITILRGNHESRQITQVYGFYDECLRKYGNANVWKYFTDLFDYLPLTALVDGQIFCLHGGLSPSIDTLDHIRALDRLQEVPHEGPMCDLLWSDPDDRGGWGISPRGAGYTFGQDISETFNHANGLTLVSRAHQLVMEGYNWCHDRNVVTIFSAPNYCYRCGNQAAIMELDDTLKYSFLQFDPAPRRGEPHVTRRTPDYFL

fold more co-precipitated in CR cells than in KGM [1]: 25 fold | fold more co-precipitated in CR cells than in KGM [2]: 3.8 fold
B1: β-catenin (natural protein, human (endogenous in HECs), UniProt P35222 1-781, looked up)
chain: MATQADLMELDMAMEPDRKAAVSHWQQQSYLDSGIHSGATTTAPSLSGKGNPEEEDVDTSQVLYEWEQGFSQSFTQEQVADIDGQYAMTRAQRVRAAMFPETLDEGMQIPSTQFDAAHPTNVQRLAEPSQMLKHAVVNLINYQDDAELATRAIPELTKLLNDEDQVVVNKAAVMVHQLSKKEASRHAIMRSPQMVSAIVRTMQNTNDVETARCTAGTLHNLSHHREGLLAIFKSGGIPALVKMLGSPVDSVLFYAITTLHNLLLHQEGAKMAVRLAGGLQKMVALLNKTNVKFLAITTDCLQILAYGNQESKLIILASGGPQALVNIMRTYTYEKLLWTTSRVLKVLSVCSSNKPAIVEAGGMQALGLHLTDPSQRLVQNCLWTLRNLSDAATKQEGMEGLLGTLVQLLGSDDINVVTCAAGILSNLTCNNYKNKMMVCQVGGIEALVRTVLRAGDREDITEPAICALRHLTSRHQEAEMAQNAVRLHYGLPVVVKLLHPPSHWPLIKATVGLIRNLALCPANHAPLREQGAIPRLVQLLVRAHQDTQRRTSMGGTQQQFVEGVRMEEIVEGCTGALHILARDVHNRIVIRGLNTIPLFVQLLYSPIENIQRVAAGVLCELAQDKEAAEAIEAEGATAPLTELLHSRNEGVATYAAAVLFRMSEDKPQDYKKRLSVELTSSLFRTEPMAWNETADLGLDIGAQGEPLGYRQDDPSYRSFHSGGYGQDALGMDPMMEHEMGGHHPGADYPVDGLPDLGHAQDLMDGLPPGDSNQLAWFDTDL
notes: β-catenin, endogenous in primary human ectocervical cells (HECs); Endogenous protein; its phosphorylation state in the co-precipitate was not determined; source: endogenous, lysate of primary human ectocervical cells (HECs) in RIPA buffer
